Laboratory results reported in the supplement of paper PMC11246515.
± gives the standard deviation of the averaged measurements.

Test: total protein half-life in vivo (active degradation + dilution); higher = more stable protein
[1] = E. coli NCM3722 delta-clpP delta-lon delta-hslV, growth: N-lim chemostat, doubling time 6 h
[2] = E. coli NCM3722 delta-clpP, growth: N-lim chemostat, doubling time 6 h
[3] = E. coli NCM3722 delta-hslV, growth: N-lim chemostat, doubling time 6 h
[4] = E. coli NCM3722 delta-lon, growth: N-lim chemostat, doubling time 6 h
[5] = E. coli NCM3722 delta-smpB, growth: N-lim chemostat, doubling time 6 h
[6] = wild type E. coli NCM3722, growth: C-lim chemostat, doubling time 3 h
[7] = wild type E. coli NCM3722, growth: C-lim chemostat, doubling time 6 h
[8] = wild type E. coli NCM3722, growth: C-lim chemostat, doubling time 12 h
[9] = wild type E. coli NCM3722, growth: N-lim chemostat, doubling time 6 h
[10] = wild type E. coli NCM3722, growth: N-lim chemostat, doubling time 12 h
[11] = wild type E. coli NCM3722, growth: P-lim chemostat, doubling time 6 h
[12] = wild type E. coli NCM3722, growth: P-lim chemostat, doubling time 12 h

Row | Sequence | total protein half-life in vivo [1] | total protein half-life in vivo [2] | total protein half-life in vivo [3] | total protein half-life in vivo [4] | total protein half-life in vivo [5] | total protein half-life in vivo [6] | total protein half-life in vivo [7] | total protein half-life in vivo [8] | total protein half-life in vivo [9] | total protein half-life in vivo [10] | total protein half-life in vivo [11] | total protein half-life in vivo [12]
1 | MSKPFKLNSAFKPSGDQPEAIRRLEEGLEDGLAHQTLLGVTGSGKTFTIANVIADLQRPTMVLAPNKTLAAQLYGEMKEFFPENAVEYFVSYYDYYQPEAYVPSSDTFIEKDASVNEHIEQMRLSATKAMLERRDVVVVASVSAIYGLGDPDLYLKMMLHLTVGMIIDQRAILRRLAELQYARNDQAFQRGTFRVRGEVIDIFPAESDDIALRVELFDEEVERLSLFDPLTGQIVSTIPRFTIYPKTHYVTPRERIVQAMEEIKEELAARRKVLLENNKLLEEQRLTQRTQFDLEMMNELGYCSGIENYSRFLSGRGPGEPPPTLFDYLPADGLLVVDESHVTIPQIGGMYRGDRARKETLVEYGFRLPSALDNRPLKFEEFEALAPQTIYVSATPGNYELEKSGGDVVDQVVRPTGLLDPIIEVRPVATQVDDLLSEIRQRAAINERVLVTTLTKRMAEDLTEYLEEHGERVRYLHSDIDTVERMEIIRDLRLGEFDVLVGINLLREGLDMPEVSLVAILDADKEGFLRSERSLIQTIGRAARNVNGKAILYGDKITPSMAKAIGETERRREKQQKYNEEHGITPQGLNKKVVDILALGQNIAKTKAKGRGKSRPIVEPDNVPMDMSPKALQQKIHELEGLMMQHAQNLEFEEAAQIRDQLHQLRELFIAAS [P0A8F8] | 5.26 ± 0.16 h | 4.561 ± 0.016 h | 2.99 ± 0.055 h | 3.39 ± 0.18 h | 2.85 ± 0.065 h | 2.44 ± 0.18 h | 4.02 ± 0.073 h | 6.348 ± 0.01 h | 2.96 ± 0.15 h | 4.85 ± 0.78 h | 3.67 ± 0.054 h | 5.85 ± 0.49 h
2 | MLQSNEYFSGKVKSIGFSSSSTGRASVGVMVEGEYTFSTAEPEEMTVISGALNVLLPDATDWQVYEAGSVFNVPGHSEFHLQVAEPTSYLCRYL [P0C037] | 5.23 ± 0.64 h | 3.8 ± 0.061 h | 3.59 ± 0.28 h | 4.706 ± 0.03 h | 3.46 ± 0.4 h | 2.75 ± 0.14 h | 5.02 ± 0.079 h | 9.73 ± 2.5 h | 3.78 ± 0.38 h | 5.6 h | 4.25 ± 0.35 h | 6.87 ± 0.11 h
3 | MASTARSLRYALAILTTSLVTPSVWAHAHLTHQYPAANAQVTAAPQAITLNFSEGVETGFSGAKITGPKNENIKTLPAKRNEQDQKQLIVPLADSLKPGTYTVDWHVVSVDGHKTKGHYTFSVK [P0AA57] | 5.53 h |  | > 8 h | 5.82 h | 4.84 h | 3.06 h | 5.46 ± 0.25 h | 9.96 ± 0.3 h | 5.82 ± 0.43 h | 9.82 ± 0.3 h | 4.82 h | 9.37 ± 0.95 h
4 | MAEMKNLKIEVVRYNPEVDTAPHSAFYEVPYDATTSLLDALGYIKDNLAPDLSYRWSCRMAICGSCGMMVNNVPKLACKTFLRDYTDGMKVEALANFPIERDLVVDMTHFIESLEAIKPYIIGNSRTADQGTNIQTPAQMAKYHQFSGCINCGLCYAACPQFGLNPEFIGPAAITLAHRYNEDSRDHGKKERMAQLNSQNGVWSCTFVGYCSEVCPKHVDPAAAIQQGKVESSKDFLIATLKPR [P0AC47] |  | 5.78 ± 0.38 h | 6.96 ± 1 h | 5.92 ± 0.62 h | 5.82 ± 0.086 h | 3.07 ± 0.19 h | 5.76 ± 0.11 h | 11 ± 2.1 h | 6.1 ± 0.5 h | 12.2 ± 1.8 h | 5.48 ± 0.44 h | 13.1 ± 1.2 h
5 | MKKIALAGLAGMLLVSASVNAMSISGQAGKEYTNIGVGFGTETTGLALSGNWTHNDDDGDVAGVGLGLNLPLGPLMATVGGKGVYTNPNYGDEGYAAAVGGGLQWKIGNSFRLFGEYYYSPDSLSSGIQSYEEANAGARYTIMRPVSIEAGYRYLNLSGKDGNRDNAVADGPYVGVNASF |  | > 8 h | > 8 h | 6.46 ± 1.8 h | 5.13 h | 2.53 ± 0.17 h |  |  | 4.53 ± 0.26 h |  | 4.72 h | 13 h
6 | MDQKLLTDFRSELLDSRFGAKAISTIAESKRFPLHEMRDDVAFQIINDELYLDGNARQNLATFCQTWDDENVHKLMDLSINKNWIDKEEYPQSAAIDLRCVNMVADLWHAPAPKNGQAVGTNTIGSSEACMLGGMAMKWRWRKRMEAAGKPTDKPNLVCGPVQICWHKFARYWDVELREIPMRPGQLFMDPKRMIEACDENTIGVVPTFGVTYTGNYEFPQPLHDALDKFQADTGIDIDMHIDAASGGFLAPFVAPDIVWDFRLPRVKSISASGHKFGLAPLGCGWVIWRDEEALPQELVFNVDYLGGQIGTFAINFSRPAGQVIAQYYEFLRLGREGYTKVQNASYQVAAYLADEIAKLGPYEFICTGRPDEGIPAVCFKLKDGEDPGYTLYDLSERLRLRGWQVPAFTLGGEATDIVVMRIMCRRGFEMDFAELLLEDYKASLKYLSDHPKLQGIAQQNSFKHT | 5.86 ± 0.071 h |  |  | 5.71 ± 0.19 h | 5.91 ± 0.41 h | 3.71 h | 6.55 ± 0.6 h | > 16 h | 5.53 h | 9.35 ± 0.68 h | 6.024 ± 0.042 h | 12.1 ± 1.2 h
7 | MRSLADFEFNKAPLCEGMILACEAIRRDFPSQDVYDELERLVSLAKEEISQLLPLEEQLEKLIALFYGDWGFKASRGVYRLSDALWLDQVLKNRQGSAVSLGAVLLWVANRLDLPLLPVIFPTQLILRIECPDGEIWLINPFNGESLSEHMLDVWLKGNISPSAELFYEDLDEADNIEVIRKLLDTLKASLMEENQMELALRTSEALLQFNPEDPYEIRDRGLIYAQLDCEHVALNDLSYFVEQCPEDPISEMIRAQINNIAHKHIVLH [P0AGM5] |  |  |  |  |  | 0.281 h |  |  |  |  |  | 
8 | MSKRRVVVTGLGMLSPVGNTVESTWKALLAGQSGISLIDHFDTSAYATKFAGLVKDFNCEDIISRKEQRKMDAFIQYGIVAGVQAMQDSGLEITEENATRIGAAIGSGIGGLGLIEENHTSLMNGGPRKISPFFVPSTIVNMVAGHLTIMYGLRGPSISIATACTSGVHNIGHAARIIAYGDADVMVAGGAEKASTPLGVGGFGAARALSTRNDNPQAASRPWDKERDGFVLGDGAGMLVLEEYEHAKKRGAKIYAELVGFGMSSDAYHMTSPPENGAGAALAMANALRDAGIEASQIGYVNAHGTSTPAGDKAEAQAVKTIFGEAASRVLVSSTKSMTGHLLGAAGAVESIYSILALRDQAVPPTINLDNPDEGCDLDFVPHEARQVSGMEYTLCNSFGFGGTNGSLIFKKI [P0AAI5] | 6.45 ± 1.9 h | 4.94 ± 0.21 h | 4.87 ± 0.28 h | 5.15 ± 0.41 h | 4.89 ± 0.14 h | 3.121 ± 0.02 h | 6.09 ± 0.35 h | 12.1 ± 0.42 h | 4.89 ± 0.34 h | 8.33 ± 0.17 h | 6.13 ± 0.29 h | 12.6 ± 0.18 h
